We go through 4 molecules from patent US20070003923A1 (Scripps Research, published 2007).

To fix the notation:
B2: Coxsackie-Adenovirus Receptor (CAR) on A549 lung carcinoma cells (receptor)
chain: LSITTPEEMIEKAKGETAYLPCKFTLSPEDQGPLDIEWLISPADNQKVDQVIILYSGDKIYDDYYPDLKGRVHFTSNDLKSGDASINVTNLQLSDIGTYQCKVKKAPGVANKKIHLVVLVKPSGARCYVDGSEEIGSDFKIKCEPKEGSLPLQYEWQKLSDSQKMPTSWLAEMTSSVISVKNASSEYSGTYSCTVRNRVGSDQCLLRLNVVPPSNKAGLIAGAIIGTLLALALIGLIIFCCRKKRREEKYEKEVHHDIREDVPPPKSRTSTARSYIGSNHSSLGSMSPSNMEGYSKTQYNQVPSEDFERTPQSPTLPPAKVAAPNLSRMGAIPVMIPAQSKDGSIV
notes: whole, on cells; The assays were run on A549 cells, which were not transfected with CAR
B3: wild type Ad5 fiber protein, on Ad5-pseudotyped particles (Ad5.GFP.ΔF/5F) (other)
chain: MKRARPSEDTFNPVYPYDTETGPPTVPFLTPPFVSPNGFQESPPGVLSLRLSEPLVTSNGMLALKMGNGLSLDEAGNLTSQNVTTVSPPLKKTKSNINLEISAPLTVTSEALTVAAAAPLMVAGNTLTMQSQAPLTVHDSKLSIATQGPLTVSEGKLALQTSGPLTTTDSSTLTITASPPLTTATGSLGIDLKEPIYTQNGKLGLKYGAPLHVTDDLNTLTVATGPGVTINNTSLQTKVTGALGFDSQGNMQLNVAGGLRIDSQNRRLILDVSYPFDAQNQLNLRLGQGPLFINSAHNLDINYNKGLYLFTASNNSKKLEVNLSTAKGLMFDATAIAINAGDGLEFGSPNAPNTNPLKTKIGHGLEFDSNKAMVPKLGTGLSFDSTGAITVGNKNNDKLTLWTTPAPSPNCRLNAEKDAKLTLVLTKCGSQILATVSVLAVKGSLAPISGTVQSAHLIIRFDENGVLLNNSFLDPEYWNFRNGDLTEGTAYTNAVGFMPNLSAYPKSHGKTAKSNIVSQVYLNGDKTKPVTLTITLNGTQETGDTTPSAYSMSFSWDWSGHNYINEIFATSSYTFSYIAQE

The target in test [1] is B2. Description: virus attachment to A549 cells at 4 C, bound genomes by TaqMan PCR; non-specific binding set by excess Ad5 knob.
Test [2] concerns the target B3. The test is described as above.
The target in test [3] is T1, Ad5Δs truncated Ad5 fiber (deletion of the 14 central shaft repeats), on pseudotyped Ad5 particles (adenovirus serotype 5 (Ad5), UniProt P11818 1-581).
T1 construct: also called Ad5As; pLP32
T1 sequence: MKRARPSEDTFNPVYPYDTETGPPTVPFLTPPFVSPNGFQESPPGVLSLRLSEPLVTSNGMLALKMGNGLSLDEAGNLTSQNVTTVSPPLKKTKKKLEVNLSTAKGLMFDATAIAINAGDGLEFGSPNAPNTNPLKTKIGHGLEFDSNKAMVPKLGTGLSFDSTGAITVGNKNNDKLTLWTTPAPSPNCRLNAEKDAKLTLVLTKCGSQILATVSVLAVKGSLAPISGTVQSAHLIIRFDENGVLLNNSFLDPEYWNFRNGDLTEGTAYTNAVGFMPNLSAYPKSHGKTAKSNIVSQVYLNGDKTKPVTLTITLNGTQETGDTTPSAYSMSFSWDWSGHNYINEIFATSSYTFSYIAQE
The description is as above.

Test [4] has as its target B2. Description: cell-based or functional assay.

B1: Ad5s/Ad37s chimeric fiber (Ad5 fiber with the 3rd and 21st repeats replaced with the corresponding repeats of Ad37), on pseudotyped Ad5 particles (other)
chain: MKRARPSEDTFNPVYPYDTETGPPTVPFLTPPFVSPNGFQESPPGVLSLRLSEPLVTSNGMLALKMGNGLSLDEAGSLTVNPKAPLQVNTDSNINLEISAPLTVTSEALTVAAAAPLMVAGNTLTMQSQAPLTVHDSKLSIATQGPLTVSEGKLALQTSGPLTTTDSSTLTITASPPLTTATGSLGIDLKEPIYTQNGKLGLKYGAPLHVTDDLNTLTVATGPGVTINNTSLQTKVTGALGFDSQGNMQLNVAGGLRIDSQNRRLILDVSYPFDAQNQLNLRLGQGPLFINSAHNLDINYNKGLYLFTASNNSKKLEVNLSTAKGLMFDATAIAINAGDGLEFGSPNAPNTNPLKTKIGHGLEFDSNIGINVRAREGLTFDNDGAITVGNKNNDKLTLWTTPAPSPNCRLNAEKDAKLTLVLTKCGSQILATVSVLAVKGSLAPISGTVQSAHLIIRFDENGVLLNNSFLDPEYWNFRNGDLTEGTAYTNAVGFMPNLSAYPKSHGKTAKSNIVSQVYLNGDKTKPVTLTITLNGTQETGDTTPSAYSMSFSWDWSGHNYINEIFATSSYTFSYIAQE
notes: also called 'straightened' Ad5 fiber shaft; pLP43
For B1, the binding result in test [1] is on record as “binds”.
Turning to B2, the binding result in test [2] and in test [3] was “binds” each time.
Turning to B3, the “infection of A549 cells by GFP vector particles (FACS)” value in test [4] was approximately 8 fold.

B4: Ad37s/Ad5k chimeric fiber (Ad37 shaft fused to the Ad5 knob), on pseudotyped Ad5 particles (other)
chain: MKRARPSEDDFNPVYPYGYARNQNIPFLTPPFVSSDGFKNFPPGVLSLKLADPITITNGDVSLKVGGGLTLQDGSLTVNPKAPLQVNTDKKLELAYDNPFESSANKLSLKVGHGLKVLDEKSAAGLKDLIGKLVVLTGKGIGTENLENTDGSSRGIGINVRAREGLTFDNDGYLVAWNPKYDTRTLWTTPAPSPNCRLNAEKDAKLTLVLTKCGSQILATVSVLAVKGSLAPISGTVQSAHLIIRFDENGVLLNNSFLDPEYWNFRNGDLTEGTAYTNAVGFMPNLSAYPKSHGKTAKSNIVSQVYLNGDKTKPVTLTITLNGTQETGDTTPSAYSMSFSWDWSGHNYINEIFATSSYTFSYIAQE
notes: Built from Ad37 1-184, with the first seven residues changed to those of Ad5, and Ad5 400-581; also called pLP13
Take B4: in test [1], the binding result was “binds”.
